Drawing on paper PMC11612440 (2024), this text covers Kd for two molecules.

Like-named read-outs stand apart in the source and are kept apart here.

Test [1] deals with T1, BCL11B protein, MBP-tag-fused recombinant (pETMBP.3C-Bcl11b) (mouse, UniProt Q99PV8 1-884).
T1 chain: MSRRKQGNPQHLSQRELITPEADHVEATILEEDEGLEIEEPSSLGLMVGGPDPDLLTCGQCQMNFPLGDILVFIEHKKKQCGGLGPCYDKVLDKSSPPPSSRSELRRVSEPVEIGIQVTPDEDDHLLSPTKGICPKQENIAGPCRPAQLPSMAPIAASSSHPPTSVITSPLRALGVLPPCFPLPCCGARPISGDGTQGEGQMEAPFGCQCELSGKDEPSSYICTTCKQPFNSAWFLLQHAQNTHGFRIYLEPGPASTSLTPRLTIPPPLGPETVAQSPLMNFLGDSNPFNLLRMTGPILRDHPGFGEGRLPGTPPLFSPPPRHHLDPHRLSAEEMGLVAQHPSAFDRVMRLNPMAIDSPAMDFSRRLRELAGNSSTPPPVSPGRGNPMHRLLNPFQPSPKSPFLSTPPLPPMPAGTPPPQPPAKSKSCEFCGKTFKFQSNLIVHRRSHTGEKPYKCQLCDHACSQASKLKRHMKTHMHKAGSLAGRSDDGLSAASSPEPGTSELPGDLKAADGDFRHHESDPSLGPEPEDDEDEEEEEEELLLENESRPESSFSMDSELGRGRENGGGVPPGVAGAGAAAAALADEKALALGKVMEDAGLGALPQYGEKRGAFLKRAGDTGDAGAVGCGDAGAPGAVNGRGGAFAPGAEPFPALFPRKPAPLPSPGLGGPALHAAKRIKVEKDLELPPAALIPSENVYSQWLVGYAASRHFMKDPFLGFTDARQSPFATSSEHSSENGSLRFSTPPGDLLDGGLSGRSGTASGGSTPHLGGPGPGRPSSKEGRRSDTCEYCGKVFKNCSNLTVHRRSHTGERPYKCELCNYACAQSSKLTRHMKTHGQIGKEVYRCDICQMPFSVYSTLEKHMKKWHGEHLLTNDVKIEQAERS
The test can be described thus: SPR. (Surface plasmon resonance follows binding to a sensor surface in real time, without labels.)

For test [2], the target named is T1, BCL11B protein, MBP-tag-fused …. The experiment in a line: SPR.

B1: MBD3, MBP-tag-fused recombinant (pETMBP.3C-Mbd3) (natural protein)
chain: MERKRWECPALPQGWEREEVPRRSGLSAGHRDVFYYSPSGKKFRSKPQLARYLGGSMDLSTFDFRTGKMLMNKMNKSRQRVRYDSSNQVKGKPDLNTALPVRQTASIFKQPVTKITNHPSNKVKSDPQKAVDQPRQLFWEKKLSGLSAFDIAEELVRTMDLPKGLQGVGPGCTDETLLSAIASALHTSTLPITGQLSAAVEKNPGVWLNTAQPLCKAFMVTDDDIRKQEELVQQVRKRLEEALMADMLAHVEELARDGEAPLDKACAEEEEEEEEEEEEPEPERV
In the case of B1, the Kd (commonly a measure of binding affinity in units of concentration) in test [1] turned out to be 2.42 nM.

B2: β-catenin, MBP-tag-fused recombinant (pETMBP.3C-β-catenin) (natural protein)
chain: MATQADLMELDMAMEPDRKAAVSHWQQQSYLDSGIHSGATTTAPSLSGKGNPEEEDVDTSQVLYEWEQGFSQSFTQEQVADIDGQYAMTRAQRVRAAMFPETLDEGMQIPSTQFDAAHPTNVQRLAEPSQMLKHAVVNLINYQDDAELATRAIPELTKLLNDEDQVVVNKAAVMVHQLSKKEASRHAIMRSPQMVSAIVRTMQNTNDVETARCTAGTLHNLSHHREGLLAIFKSGGIPALVKMLGSPVDSVLFYAITTLHNLLLHQEGAKMAVRLAGGLQKMVALLNKTNVKFLAITTDCLQILAYGNQESKLIILASGGPQALVNIMRTYTYEKLLWTTSRVLKVLSVCSSNKPAIVEAGGMQALGLHLTDPSQRLVQNCLWTLRNLSDAATKQEGMEGLLGTLVQLLGSDDINVVTCAAGILSNLTCNNYKNKMMVCQVGGIEALVRTVLRAGDREDITEPAICALRHLTSRHQEAEMAQNAVRLHYGLPVVVKLLHPPSHWPLIKATVGLIRNLALCPANHAPLREQGAIPRLVQLLVRAHQDTQRRTSMGGTQQQFVEGVRMEEIVEGCTGALHILARDVHNRIVIRGLNTIPLFVQLLYSPIENIQRVAAGVLCELAQDKEAAEAIEAEGATAPLTELLHSRNEGVATYAAAVLFRMSEDKPQDYKKRLSVELTSSLFRTEPMAWNETADLGLDIGAQGEALGYRQDDPSYRSFHSGGYGQDALGMDPMMEHEMGGHHPGADYPVDGLPDLGHAQDLMDGLPPGDSNQLAWFDTDL
For B2, the Kd in test [2] was 0.609 nM.
